B1: LetB L243N (periplasmic domain) (domain or fragment, E. coli, UniProt P76272 43-877, looked up)
chain: QDRGNTVTIDFMSADGIVPGRTPVRYQGVEVGTVQDISLSDDLRKIEVKVSIKSDMKDALREETQFWLVTPKASLAGVSGLDALVGGNYIGMMPGKGKEQDHFVALDTQPKYRLDNGDLMIHLQAPDLGSLNSGSLVYFRKIPVGKVYDYAINPNKQGVVIDVLIERRFTDLVKKGSRFWNVSGVDANVSISGAKVKLESNAALVNGAIAFDSPEESKPAEAEDTFGLYEDLAHSQRGVIIKLELPSGAGLTADSTPLMYQGLEVGQLTKLDLNPGGKVTGEMTVDPSVVTLLRENTRIELRNPKLSLSDANLSALLTGKTFELVPGDGEPRKEFVVVPGEKALLHEPDVLTLTLTAPESYGIDAGQPLILHGVQVGQVIDRKLTSKGVTFTVAIEPQHRELVKGDSKFVVNSRVDVKVGLDGVEFLGASASEWINGGIRILPGDKGEMKASYPLYANLEKALENSLSDLPTTTVSLSAETLPDVQAGSVVLYRKFEVGEVITVRPRANAFDIDLHIKPEYRNLLTSNSVFWAEGGAKVQLNGSGLTVQASPLSRALKGAISFDNLSGASASQRKGDKRILYASETAARAVGGQITLHAFDAGKLAVGMPIRYLGIDIGQIQTLDLITARNEVQAKAVLYPEYVQTFARGGTRFSVVTPQISAAGVEHLDTILQPYINVEPGRGNPRRDFELQEATITDSRYLDGLSIIVEAPEAGSLGIGTPVLFRGLEVGTVTGMTLGTLSDRVMIAMRISKRYQHLVRNNSVFWLASGYSLDFGLTGGVVKTGTFNQFIRGGIAFATPPGTPLAPKAQEGKHFLLQESEPKEWREWGTALPK
B2: LetB L359N (periplasmic domain) (domain or fragment, E. coli, UniProt P76272 43-877, looked up)
chain: QDRGNTVTIDFMSADGIVPGRTPVRYQGVEVGTVQDISLSDDLRKIEVKVSIKSDMKDALREETQFWLVTPKASLAGVSGLDALVGGNYIGMMPGKGKEQDHFVALDTQPKYRLDNGDLMIHLQAPDLGSLNSGSLVYFRKIPVGKVYDYAINPNKQGVVIDVLIERRFTDLVKKGSRFWNVSGVDANVSISGAKVKLESLAALVNGAIAFDSPEESKPAEAEDTFGLYEDLAHSQRGVIIKLELPSGAGLTADSTPLMYQGLEVGQLTKLDLNPGGKVTGEMTVDPSVVTLLRENTRIELRNPKLSLSDANLSALNTGKTFELVPGDGEPRKEFVVVPGEKALLHEPDVLTLTLTAPESYGIDAGQPLILHGVQVGQVIDRKLTSKGVTFTVAIEPQHRELVKGDSKFVVNSRVDVKVGLDGVEFLGASASEWINGGIRILPGDKGEMKASYPLYANLEKALENSLSDLPTTTVSLSAETLPDVQAGSVVLYRKFEVGEVITVRPRANAFDIDLHIKPEYRNLLTSNSVFWAEGGAKVQLNGSGLTVQASPLSRALKGAISFDNLSGASASQRKGDKRILYASETAARAVGGQITLHAFDAGKLAVGMPIRYLGIDIGQIQTLDLITARNEVQAKAVLYPEYVQTFARGGTRFSVVTPQISAAGVEHLDTILQPYINVEPGRGNPRRDFELQEATITDSRYLDGLSIIVEAPEAGSLGIGTPVLFRGLEVGTVTGMTLGTLSDRVMIAMRISKRYQHLVRNNSVFWLASGYSLDFGLTGGVVKTGTFNQFIRGGIAFATPPGTPLAPKAQEGKHFLLQESEPKEWREWGTALPK
B3: LetB L246N (periplasmic domain) (domain or fragment, E. coli, UniProt P76272 43-877, looked up)
chain: QDRGNTVTIDFMSADGIVPGRTPVRYQGVEVGTVQDISLSDDLRKIEVKVSIKSDMKDALREETQFWLVTPKASLAGVSGLDALVGGNYIGMMPGKGKEQDHFVALDTQPKYRLDNGDLMIHLQAPDLGSLNSGSLVYFRKIPVGKVYDYAINPNKQGVVIDVLIERRFTDLVKKGSRFWNVSGVDANVSISGAKVKLESLAANVNGAIAFDSPEESKPAEAEDTFGLYEDLAHSQRGVIIKLELPSGAGLTADSTPLMYQGLEVGQLTKLDLNPGGKVTGEMTVDPSVVTLLRENTRIELRNPKLSLSDANLSALLTGKTFELVPGDGEPRKEFVVVPGEKALLHEPDVLTLTLTAPESYGIDAGQPLILHGVQVGQVIDRKLTSKGVTFTVAIEPQHRELVKGDSKFVVNSRVDVKVGLDGVEFLGASASEWINGGIRILPGDKGEMKASYPLYANLEKALENSLSDLPTTTVSLSAETLPDVQAGSVVLYRKFEVGEVITVRPRANAFDIDLHIKPEYRNLLTSNSVFWAEGGAKVQLNGSGLTVQASPLSRALKGAISFDNLSGASASQRKGDKRILYASETAARAVGGQITLHAFDAGKLAVGMPIRYLGIDIGQIQTLDLITARNEVQAKAVLYPEYVQTFARGGTRFSVVTPQISAAGVEHLDTILQPYINVEPGRGNPRRDFELQEATITDSRYLDGLSIIVEAPEAGSLGIGTPVLFRGLEVGTVTGMTLGTLSDRVMIAMRISKRYQHLVRNNSVFWLASGYSLDFGLTGGVVKTGTFNQFIRGGIAFATPPGTPLAPKAQEGKHFLLQESEPKEWREWGTALPK
B4: LetB V247N (periplasmic domain) (domain or fragment, E. coli, UniProt P76272 43-877, looked up)
chain: QDRGNTVTIDFMSADGIVPGRTPVRYQGVEVGTVQDISLSDDLRKIEVKVSIKSDMKDALREETQFWLVTPKASLAGVSGLDALVGGNYIGMMPGKGKEQDHFVALDTQPKYRLDNGDLMIHLQAPDLGSLNSGSLVYFRKIPVGKVYDYAINPNKQGVVIDVLIERRFTDLVKKGSRFWNVSGVDANVSISGAKVKLESLAALNNGAIAFDSPEESKPAEAEDTFGLYEDLAHSQRGVIIKLELPSGAGLTADSTPLMYQGLEVGQLTKLDLNPGGKVTGEMTVDPSVVTLLRENTRIELRNPKLSLSDANLSALLTGKTFELVPGDGEPRKEFVVVPGEKALLHEPDVLTLTLTAPESYGIDAGQPLILHGVQVGQVIDRKLTSKGVTFTVAIEPQHRELVKGDSKFVVNSRVDVKVGLDGVEFLGASASEWINGGIRILPGDKGEMKASYPLYANLEKALENSLSDLPTTTVSLSAETLPDVQAGSVVLYRKFEVGEVITVRPRANAFDIDLHIKPEYRNLLTSNSVFWAEGGAKVQLNGSGLTVQASPLSRALKGAISFDNLSGASASQRKGDKRILYASETAARAVGGQITLHAFDAGKLAVGMPIRYLGIDIGQIQTLDLITARNEVQAKAVLYPEYVQTFARGGTRFSVVTPQISAAGVEHLDTILQPYINVEPGRGNPRRDFELQEATITDSRYLDGLSIIVEAPEAGSLGIGTPVLFRGLEVGTVTGMTLGTLSDRVMIAMRISKRYQHLVRNNSVFWLASGYSLDFGLTGGVVKTGTFNQFIRGGIAFATPPGTPLAPKAQEGKHFLLQESEPKEWREWGTALPK
B5: LetB L355N (periplasmic domain) (domain or fragment, E. coli, UniProt P76272 43-877, looked up)
chain: QDRGNTVTIDFMSADGIVPGRTPVRYQGVEVGTVQDISLSDDLRKIEVKVSIKSDMKDALREETQFWLVTPKASLAGVSGLDALVGGNYIGMMPGKGKEQDHFVALDTQPKYRLDNGDLMIHLQAPDLGSLNSGSLVYFRKIPVGKVYDYAINPNKQGVVIDVLIERRFTDLVKKGSRFWNVSGVDANVSISGAKVKLESLAALVNGAIAFDSPEESKPAEAEDTFGLYEDLAHSQRGVIIKLELPSGAGLTADSTPLMYQGLEVGQLTKLDLNPGGKVTGEMTVDPSVVTLLRENTRIELRNPKLSLSDANNSALLTGKTFELVPGDGEPRKEFVVVPGEKALLHEPDVLTLTLTAPESYGIDAGQPLILHGVQVGQVIDRKLTSKGVTFTVAIEPQHRELVKGDSKFVVNSRVDVKVGLDGVEFLGASASEWINGGIRILPGDKGEMKASYPLYANLEKALENSLSDLPTTTVSLSAETLPDVQAGSVVLYRKFEVGEVITVRPRANAFDIDLHIKPEYRNLLTSNSVFWAEGGAKVQLNGSGLTVQASPLSRALKGAISFDNLSGASASQRKGDKRILYASETAARAVGGQITLHAFDAGKLAVGMPIRYLGIDIGQIQTLDLITARNEVQAKAVLYPEYVQTFARGGTRFSVVTPQISAAGVEHLDTILQPYINVEPGRGNPRRDFELQEATITDSRYLDGLSIIVEAPEAGSLGIGTPVLFRGLEVGTVTGMTLGTLSDRVMIAMRISKRYQHLVRNNSVFWLASGYSLDFGLTGGVVKTGTFNQFIRGGIAFATPPGTPLAPKAQEGKHFLLQESEPKEWREWGTALPK
B6: LetB L358N (periplasmic domain) (domain or fragment, E. coli, UniProt P76272 43-877, looked up)
chain: QDRGNTVTIDFMSADGIVPGRTPVRYQGVEVGTVQDISLSDDLRKIEVKVSIKSDMKDALREETQFWLVTPKASLAGVSGLDALVGGNYIGMMPGKGKEQDHFVALDTQPKYRLDNGDLMIHLQAPDLGSLNSGSLVYFRKIPVGKVYDYAINPNKQGVVIDVLIERRFTDLVKKGSRFWNVSGVDANVSISGAKVKLESLAALVNGAIAFDSPEESKPAEAEDTFGLYEDLAHSQRGVIIKLELPSGAGLTADSTPLMYQGLEVGQLTKLDLNPGGKVTGEMTVDPSVVTLLRENTRIELRNPKLSLSDANLSANLTGKTFELVPGDGEPRKEFVVVPGEKALLHEPDVLTLTLTAPESYGIDAGQPLILHGVQVGQVIDRKLTSKGVTFTVAIEPQHRELVKGDSKFVVNSRVDVKVGLDGVEFLGASASEWINGGIRILPGDKGEMKASYPLYANLEKALENSLSDLPTTTVSLSAETLPDVQAGSVVLYRKFEVGEVITVRPRANAFDIDLHIKPEYRNLLTSNSVFWAEGGAKVQLNGSGLTVQASPLSRALKGAISFDNLSGASASQRKGDKRILYASETAARAVGGQITLHAFDAGKLAVGMPIRYLGIDIGQIQTLDLITARNEVQAKAVLYPEYVQTFARGGTRFSVVTPQISAAGVEHLDTILQPYINVEPGRGNPRRDFELQEATITDSRYLDGLSIIVEAPEAGSLGIGTPVLFRGLEVGTVTGMTLGTLSDRVMIAMRISKRYQHLVRNNSVFWLASGYSLDFGLTGGVVKTGTFNQFIRGGIAFATPPGTPLAPKAQEGKHFLLQESEPKEWREWGTALPK
B7: LetB two-ring truncation mutant (rings 2-6 deleted), TM helix removed (domain or fragment)
chain: QDRGNTVTIDFMSADGIVPGRTPVRYQGVEVGTVQDISLSDDLRKIEVKVSIKSDMKDALREETQFWLVTPKASLAGVSGLDALVGGNYIGMMPGKGKEQDHFVALDTQPKYRLDNGDGLSIIVEAPEAGSLGIGTPVLFRGLEVGTVTGMTLGTLSDRVMIAMRISKRYQHLVRNNSVFWLASGYSLDFGLTGGVVKTGTFNQFIRGGIAFATPPGTPLAPKAQEGKHFLLQESEPKEWREWGTALPK
B8: LetB three-ring truncation mutant (rings 2-5 deleted), TM helix removed (domain or fragment)
chain: QDRGNTVTIDFMSADGIVPGRTPVRYQGVEVGTVQDISLSDDLRKIEVKVSIKSDMKDALREETQFWLVTPKASLAGVSGLDALVGGNYIGMMPGKGKEQDHFVALDTQPKYRLDNGSETAARAVGGQITLHAFDAGKLAVGMPIRYLGIDIGQIQTLDLITARNEVQAKAVLYPEYVQTFARGGTRFSVVTPQISAAGVEHLDTILQPYINVEPGRGNPRRDFELQEATITDSRYLDGLSIIVEAPEAGSLGIGTPVLFRGLEVGTVTGMTLGTLSDRVMIAMRISKRYQHLVRNNSVFWLASGYSLDFGLTGGVVKTGTFNQFIRGGIAFATPPGTPLAPKAQEGKHFLLQESEPKEWREWGTALPK

Biological target: the molecule itself
Assay: negative stain EM

Stoichiometry N, 6:
B1
B2
B3
B4
B5
B6
B7
B8

Reference: article doi:10.1101/748145 (bioRxiv, 2019)
